This is an account of results in patent CN116003603A (CR BIO MEDICAL INC, dated 2023).

In general, Kd refers to the equilibrium constant for the complex coming apart. Usually koff stands for the first-order rate constant of dissociation. The kon is the second-order rate constant of association. A high value points to fast association. As a reminder, the EC50 is the concentration giving half of the maximal effect. A low value points to a more potent agent.

Assay [1] has as its target T1, CLDN18.2 (antigen of the ka/kd/KD measurement, species and form not stated). The experiment in a line: affinity measurement, method not described (Table 2-2, headed P1530).
The target in assay [2] is T2, CLDN18.2 (on CLDN18.2过表达细胞, species not stated).
T2 construct: whole, on cells
The experiment in a line: flow cytometry, antibody titration on CLDN18.2 over-expressing cells, MFI (Table 2-2, headed P1530).

In assay [3] the target is T1, CLDN18.2 (antigen of the ka/kd/KD …). The experiment in a line: affinity measurement, method not described.
Assay [4] has as its target T2, CLDN18.2 (on CLDN18.2过表达细胞, species not …). Put plainly: flow cytometry, antibody titration on CLDN18.2 over-expressing cells, MFI. Background: Flow cytometry measures light scatter and fluorescence of single cells or particles in a stream.

T1 sequence (P56856 other isoform, or with tags, fused parts or gaps): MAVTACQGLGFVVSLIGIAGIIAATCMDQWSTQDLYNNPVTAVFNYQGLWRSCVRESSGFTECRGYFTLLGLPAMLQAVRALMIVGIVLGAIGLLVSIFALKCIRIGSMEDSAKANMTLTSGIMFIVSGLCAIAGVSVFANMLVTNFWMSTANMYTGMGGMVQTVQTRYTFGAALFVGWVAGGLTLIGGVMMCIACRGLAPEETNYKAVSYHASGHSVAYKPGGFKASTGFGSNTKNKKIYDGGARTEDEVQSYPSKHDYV

B1: CLDN-BC-P1530-hH1 (antibody, V domains shown)
VH: QVQLVESGGGLVQPGGSLRLSCAASRFTFSNYAMNWVRQAPGKGLEWVSSISGSGGSSYYADSVKGRFTISKDNSQNMLYLQMNSLRAEDTAVYYCAKADWKYGYYGMDVWGQGTTVTVSS
VL: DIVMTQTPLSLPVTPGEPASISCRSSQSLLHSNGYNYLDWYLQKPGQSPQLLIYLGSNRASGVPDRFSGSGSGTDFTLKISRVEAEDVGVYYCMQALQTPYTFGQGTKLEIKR
notes: also called P1530-IgG1
Take B1: in assay [1], the Kd stood at 6.8 nM, the off-rate (koff) stood at 0.00355 s⁻¹ and the kon was 523000 M⁻¹ s⁻¹. The molecule also registered an EC50 in assay [2] of 0.62 µg/mL.

B2: CLDN-BC-P1531-hH1 (antibody, V domains shown)
VH: QVQLVESGGGLVQPGGSLRLSCAASRFTFSNYAMNWVRQAPGKGLEWVSSISGSGGSSYYADSVKGRFTISKDNSQNMLYLQMNSLRAEDTAVYYCAKADWKYGYYGMDVWGQGTMVTVSS
VL: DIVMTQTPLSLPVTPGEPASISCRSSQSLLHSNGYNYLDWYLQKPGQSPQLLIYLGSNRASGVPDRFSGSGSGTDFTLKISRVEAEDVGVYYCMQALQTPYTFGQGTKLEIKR
notes: also called CLN-P1531-hH1; P1531-IgG1
Regarding B2, in assay [3], the Kd was 5.9 nM, the koff turned out to be 0.00293 s⁻¹ and the kon is 497000 M⁻¹ s⁻¹. Also, in assay [4], the response was half-maximal at 0.69 µg/mL (EC50).
